Data published in doi:10.1101/2025.02.21.639368.

Molecular target: H1 NC99 HA trimer (full-length trimeric ectodomain of H1N1 A/New Caledonia/20/1999 hemagglutinin) (influenza A virus H1N1 A/New Caledonia/20/1999)
Test: cryo-EM structure; HA NC99 and Fab mixed at a molar ratio of 1:1.5 (HA protomer:Fab), 5 min at room temperature; graphene grids, 0.01 mg/ml

“H1 NC99 HA trimer (full-length trimeric ectodomain of H1N1 A/New Caledonia/20/1999 hemagglutinin) (natural protein)” was tested. Which stoichiometry N did it give?
Its stoichiometry N is 3.
